Drawing on patent US6448059, this text covers activity for one substance.

The target of data set [1] is T1, cysteine-tRNA synthetase (CysRS) (Escherichia coli) (UniProt P21888).
T1 sequence: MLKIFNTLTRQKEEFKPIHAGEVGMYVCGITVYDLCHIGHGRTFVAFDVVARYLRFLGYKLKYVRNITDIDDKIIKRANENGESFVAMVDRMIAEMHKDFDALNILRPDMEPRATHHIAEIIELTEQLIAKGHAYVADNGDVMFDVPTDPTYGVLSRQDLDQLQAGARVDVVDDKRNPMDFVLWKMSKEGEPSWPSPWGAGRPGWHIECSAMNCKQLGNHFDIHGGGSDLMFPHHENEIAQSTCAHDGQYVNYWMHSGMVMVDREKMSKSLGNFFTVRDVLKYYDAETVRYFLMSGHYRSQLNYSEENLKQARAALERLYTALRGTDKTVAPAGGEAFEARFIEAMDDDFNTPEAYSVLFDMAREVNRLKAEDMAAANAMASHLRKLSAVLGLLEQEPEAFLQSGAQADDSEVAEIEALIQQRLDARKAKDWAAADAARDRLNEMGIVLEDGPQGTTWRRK
The settings on record: kcat/Km of aminoacylation, 37 C; relative 1.6.

Data set [2] addresses T2, cysteine-tRNA synthetase (CysRS) (Haemophilus influenzae) (UniProt P43816).
T2 sequence: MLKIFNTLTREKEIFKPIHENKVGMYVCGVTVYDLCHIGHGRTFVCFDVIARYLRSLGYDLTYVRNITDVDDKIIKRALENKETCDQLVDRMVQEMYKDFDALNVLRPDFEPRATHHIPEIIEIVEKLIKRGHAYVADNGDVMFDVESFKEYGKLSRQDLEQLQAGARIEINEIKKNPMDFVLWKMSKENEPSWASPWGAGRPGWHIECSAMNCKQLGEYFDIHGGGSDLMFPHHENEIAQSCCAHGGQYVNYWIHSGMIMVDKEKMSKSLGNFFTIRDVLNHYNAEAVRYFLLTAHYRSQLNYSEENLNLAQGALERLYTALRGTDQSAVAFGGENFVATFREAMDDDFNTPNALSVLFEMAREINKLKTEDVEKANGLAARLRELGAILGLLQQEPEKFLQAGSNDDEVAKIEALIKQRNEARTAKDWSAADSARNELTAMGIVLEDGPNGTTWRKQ
The settings on record: kcat/Km of aminoacylation, 37 C; relative 1.4.

For the substance B. subtilis tRNACys, the activity in data set [1] was found to be 340000 M⁻¹ s⁻¹; in data set [2] it was 250000 M⁻¹ s⁻¹.
